Experimental data from patent US7521540B2, “CYR61 compositions and methods” (Munin Corporation, priority 1996, dated 2009).

What was measured:
Focal Adhesion Kinase = experiment: Focal adhesion induction; type: cell-based
Source text: In addition, Cyr61 induces focal adhesion, i.e., cell surface foci for cytoskeletal attachments. Focal adhesion is effected by cell surface protein complexes or clusters. These protein clusters are complex, including a variety of receptors from the integrin family, and a variety of protein kinases. The induction of focal adhesion by Cyr61 is reflected in the capacity of Cyr61 to induce particular members of these cell surface protein clusters. […] Moreover, indirect immunofluorescence studies have shown that Cyr61 is bound to a receptor (see above) in focal adhesive plaques. The plaques, in turn, are characteristic of focal adhesion protein complexes. Focal Adhesion Kinase, Paxillin, and αVβ3 Integrin are co-localized to the focal adhesion plaques produced by focal adhesion complex formation induced by Cyr61. These focal adhesion protein complexes bind Cyr61 at the cell surface; the complexes also attach internally to the cytoskeleton. Therefore, murine Cyr61, and human Cyr61 (see below), are, in part, adhesion molecules, a characteristic distinguishing Cyr61 from conventional growth factors. […] Subsequently, bound Cyr61 is detected, e.g., by anti-Cyr61 antibody that is labeled using techniques known in the art, such as radiolabelling, fluorescent labeling, or the use of enzymes catalyzing calorimetric reactions. […]

HUVE cells = experiment: Cell spreading assay; type: cell-based, human; conditions: dishes coated with 10 μg/ml, 2 hours
Protocol: In another embodiment of the invention, the effect of murine Cyr61 on cell morphogenesis was assessed by a cell spreading assay. Polystyrene Petri dishes were coated with 2 ml of a 10 μg/ml solution of Cyr61 or fibronectin in PBS with 0.1% BSA and treated as described above. A third plate was treated with BSA and served as a control. Each dish received 7×10^6 cells and was incubated for 2 hours. Cell spreading was analyzed by microscopy at 100-fold magnification.

NIH 3T3 cells = experiment: Fibroblast chemotaxis, modified Boyden chamber; type: cell-based, mouse
Source text: Cyr61 also affects chondrocytes, e.g., […] involved in skeletal development. In particular, Cyr61 influences the development, and perhaps maintenance, of cartilage, in contrast to the variety of growth-related proteins that exclusively influence development and maintenance of the bony skeleton. The chemotactic response of NIH 3T3 cells to murine Cyr61 was examined using a modified Boyden chamber (Neuroprobe Inc., catalog no. AP48). Grotendorst, Meth. Enzymol. 147:144-152 (1987). Purified Cyr61 protein was serially diluted in DMEM containing bovine serum albumin (BSA; 0.2 mg/ml) and added to the lower well of the chamber. The lower well was then covered with a collagen-coated polycarbonate filter (8 μm pore diameter; Nucleopore Corp., Pleasanton, Calif.). Cells (6×10^4) were then loaded into the upper well. After 5 hours incubation (10% CO2, 37° C.), the filter was removed and the cells were fixed and stained using Wright-Giemsa stain (Harleco formulation; EM Diagnostic Systems, Gibbstown, N.J.). Cells from the upper surface of the filter were then removed by wiping with a tissue swab. The chemotactic response was determined by counting the total number of migrating cells detected in ten randomly selected high-power microscopic fields (400-fold magnification) on the lower surface of the filter. Duplicate trials were performed for each experiment and the experiment was repeated three times to ensure reproducibility of the data.

[1] = test system: Human Microvascular Endothelial Cells; experiment: In vitro migration assay for angiogenesis inhibitors; type: cell-based; conditions: bFGF 10 ng/ml; Cyr61; IGF-II
Protocol: As in the preceding Example, human microvascular endothelial cells (Clonetics) were used. In one series of assays, several carbohydrates and carbohydrate derivatives were analyzed. These compounds included 10 mM mannose, 10 mM mannose-6-phosphate, and 10 mM galactose. […] Cyr61 plus galactose induced the migration of approximately 74 cells per set of three high-powered fields. […] The angiogenic activity of basic FGF (10 ng/ml) was also tested, as described above, with and without mannose-6-phosphate. In the presence of 10 mM mannose-6-phosphate, bFGF induced 51 cells per set of three high-powered fields to migrate; in its absence, bFGF induced the migration of approximately 52 cells. […] The effect of mannose-6-phosphate on IGF II activity was anticipated because mannose-6-phosphate is known to compete with IGF II for their common receptor (the IGF II receptor). […] Moreover, because there is an essentially perfect correlation between the in vitro migration assay and the in vivo angiogenesis assay, described below, mannose-6-phosphate has been identified as an inhibitor of angiogenesis based on the results of the assay disclosed herein. Accordingly, the invention contemplates a method of inhibiting angiogenesis comprising the step of administering an inhibitor the angiogenic activity of Cyr61 such as mannose-6-phosphate. […]

B1: Cyr61: Cysteine-rich ECM signaling protein; murine sequence SEQ ID NO:2, recombinant from Baculovirus-infected Sf9 cells (protein, listed as Mus musculus)
chain: MSSSTFRTLAVAVTLLHLTRLALSTCPAACHCPLEAPKCAPGVGLVRDGCGCCKVCAKQLNEDCSKTQPCDHTKGLECNFGASSTALKGICRAQSEGRPCEYNSRIYQNGESFQPNCKHQCTCIDGAVGCIPLCPQELSLPNLGCPNPRLVKVSGQCCEEWVCDEDSIKDSLDDQDDLLGLDASEVELTRNNELIAIGKGSSLKRLPVFGTEPRVLFNPLHAHGQKCIVQTTSWSQCSKSCGTGISTRVTNDNPECRLVKETRICEVRPCGQPVYSSLKKGKKCSKTKKSPEPVRFTYAGCSSVKKYRPKYCGSCVDGRCCTPLQTRTVKMRFRCEDGEMFSKNVMMIQSCKCNYNCPHPNEASFRLYSLFNDIHKFRD
B1 was tested, and the “phosphorylation of focal adhesion proteins” value (Focal Adhesion Kinase) was “induces the phosphorylation of Focal Adhesion Kinase”, the “HUVE cell spreading” value (HUVE cells) was “induces HUVE cell spreading to approximately the same extent as fibronectin” and the “optimal concentration for the chemotactic activity” value (NIH 3T3 cells) was 1 to 5 µg/mL. For the same molecule, the “migrating cells per high-power field” value (NIH 3T3 cells; 0.5 μg/ml) was “about 5.2 cells”, the “average number of migrating cells detected per field” value (from here on “average number … per field”) (NIH 3T3 cells; 1 μg/ml) was 7.5 cells and the “average number … per field” value (NIH 3T3 cells; 5 μg/ml) was 18.5 cells. The “average number … per field” value (NIH 3T3 cells; 10 μg/ml) was 18.7 cells and the “migrating cells, chemoattractant without mannose-6-phosphate” value [1] was “approximately 48 cells”.
